Data published in article PMC9352680, “A comprehensive thermodynamic model for RNA binding by the Saccharomyces cerevisiae Pumilio protein PUF4”.
Numbering of substitutions follows the chain as printed. Names and notes keep the numbering of the source.

T1: PUF4 RNA-binding domain (Saccharomyces cerevisiae, UniProt P25339 537-888)
T1 sequence: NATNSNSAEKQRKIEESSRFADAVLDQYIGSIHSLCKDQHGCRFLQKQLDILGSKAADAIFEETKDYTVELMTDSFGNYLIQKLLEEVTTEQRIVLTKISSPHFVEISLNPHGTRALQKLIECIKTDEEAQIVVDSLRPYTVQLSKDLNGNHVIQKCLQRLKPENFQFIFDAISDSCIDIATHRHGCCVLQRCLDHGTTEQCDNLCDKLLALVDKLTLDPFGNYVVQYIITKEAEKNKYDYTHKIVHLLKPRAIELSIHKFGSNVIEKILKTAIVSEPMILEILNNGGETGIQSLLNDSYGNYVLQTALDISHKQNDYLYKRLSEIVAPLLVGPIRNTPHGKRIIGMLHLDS

B1: Id_ii_S4_P3E.2_K3.1_C3.2_[C-2T]_H3.1_A3.1_F3.1_T3.2_[T9C]_[A10C] (ssRNA)
RNA: UUUGACAACUGAUCGUUCUUUCUUUUGUAUAUACCUUCUUUCUCGAUCAGUUGUCUUU
B2: Id_ii_S4_P3E.2_K3.1_C3.2_[T-1C]_H3.1_A3.1_F3.1_T3.2_[T9A]_[A10T] (ssRNA)
RNA: B1 RNA with U24C, U25C, C34A, C35U
B3: Id_ii_S4_P3E.2_K3.1_C3.2_[C-2A]_[T-1A]_H3.1_A3.1_F3.1_T3.2_[T9A]_[A10C] (ssRNA)
RNA: B1 RNA with U24A, U25A, C34A
B4: Id_ii_S4_P3E.2_K3.1_C3.2_[C-2T]_H3.1_A3.1_F3.1_T3.2_[T9A] (ssRNA)
RNA: B1 RNA with C34A, C35A
B5: Id_ii_S4_P3E.3_K3.2_C3.2_[C-2G]_[T-1G]_H3.2_A3.1_F3.1_T3.2_[T9A]_[A10C] (ssRNA)
RNA: B1 RNA with U24G, U25G, G27A, C34A
B6: Id_ii_S4_P3E.2_K3.1_C3.2_[C-2A]_[T-1A]_H3.1_A3.1_F3.1_T3.2_[T9A]_[A10G] (ssRNA)
RNA: B1 RNA with U24A, U25A, C34A, C35G
B7: Id_ii_S4_P3E.2_K3.1_C3.2_[C-2A]_[T-1C]_H3.1_A3.1_F3.1_T3.2_[A10G] (ssRNA)
RNA: B1 RNA with U24A, U25C, C34U, C35G
B8: Id_ii_S4_P3E.2_K3.1_C3.2_[T-1G]_H3.1_A3.1_F3.1_T3.2_[T9A]_[A10G] (ssRNA)
RNA: B1 RNA with U24C, U25G, C34A, C35G
B9: Id_ii_S4_P3E.2_K3.1_C3.2_[T-1A]_H3.1_A3.1_F3.1_T3.2_[T9A] (ssRNA)
RNA: B1 RNA with U24C, U25A, C34A, C35A
B10: Id_ii_S4_P3E.2_K3.1_C3.2_[T-1C]_H3.1_A3.1_F3.1_T3.2_[A10T] (ssRNA)
RNA: B1 RNA with U24C, U25C, C34U, C35U
B11: Id_ii_S4_P3E.2_K3.1_C3.2_[C-2T]_H3.1_A3.1_F3.1_T3.2_[A10C] (ssRNA)
RNA: B1 RNA with C34U
B12: Id_ii_S4_P3E.2_K3.1_C3.2_H3.1_A3.1_F3.1_T3.2_[T9G]_[A10T] (ssRNA)
RNA: B1 RNA with U24C, C34G, C35U
B13: Id_ii_S4_P3E.2_K3.1_C3.2_[C-2A]_H3.1_A3.1_F3.1_T3.2_[T9A]_[A10G] (ssRNA)
RNA: B1 RNA with U24A, C34A, C35G
B14: Id_ii_S4_P3E.2_K3.1_C3.2_H3.1_A3.1_F3.1_T3.2_[T9A] (ssRNA)
RNA: B1 RNA with U24C, C34A, C35A
B15: Id_ii_S4_P3E.2_K3.1_C3.2_[C-2A]_[T-1A]_H3.1_A3.1_F3.1_T3.2_[A10G] (ssRNA)
RNA: B1 RNA with U24A, U25A, C34U, C35G
B16: Id_ii_S4_P3E.2_K3.1_C3.2_[C-2A]_H3.1_A3.1_F3.1_T3.2_[T9A] (ssRNA)
RNA: B1 RNA with U24A, C34A, C35A
B17: Id_ii_S4_P3E.2_K3.1_C3.2_[T-1A]_H3.1_A3.1_F3.1_T3.2_[T9A]_[A10C] (ssRNA)
RNA: B1 RNA with U24C, U25A, C34A
B18: Id_ii_S4_P3E.2_K3.1_C3.2_H3.1_A3.1_F3.1_T3.2_[A10T] (ssRNA)
RNA: B1 RNA with U24C, C34U, C35U
B19: Id_ii_S4_P3E.2_K3.1_C3.2_[C-2T]_H3.1_A3.1_F3.1_T3.2_[T9A]_[A10C] (ssRNA)
RNA: B1 RNA with C34A
B20: Id_ii_S4_P3E.2_K3.1_C3.2_[T-1C]_H3.1_A3.1_F3.1_T3.2_[T9C]_[A10G] (ssRNA)
RNA: B1 RNA with U24C, U25C, C35G
B21: Id_ii_S4_P3E.2_K3.1_C3.2_[C-2A]_[T-1C]_H3.1_A3.1_F3.1_T3.2_[A10C] (ssRNA)
RNA: B1 RNA with U24A, U25C, C34U
B22: Id_ii_S4_P3E.3_K3.2_C3.2_[C-2G]_[T-1C]_H3.2_A3.1_F3.1_T3.2_[T9A]_[A10C] (ssRNA)
RNA: B1 RNA with U24G, U25C, G27A, C34A
B23: Id_ii_S4_P3E.2_K3.1_C3.2_[T-1C]_H3.1_A3.1_F3.1_T3.2_[T9G]_[A10T] (ssRNA)
RNA: B1 RNA with U24C, U25C, C34G, C35U
B24: Id_ii_S4_P3E.3_K3.2_C3.2_[C-2G]_[T-1G]_H3.2_A3.1_F3.1_T3.2_[T9A] (ssRNA)
RNA: B1 RNA with U24G, U25G, G27A, C34A, C35A
B25: Id_ii_S4_P3E.2_K3.1_C3.2_[T-1C]_H3.1_A3.1_F3.1_T3.2_[T9C]_[A10C] (ssRNA)
RNA: B1 RNA with U24C, U25C
B26: Id_ii_S4_P3E.2_K3.1_C3.2_[C-2A]_[T-1C]_H3.1_A3.1_F3.1_T3.2_[A10T] (ssRNA)
RNA: B1 RNA with U24A, U25C, C34U, C35U
B27: Id_ii_S4_P3E.2_K3.1_C3.2_[T-1A]_H3.1_A3.1_F3.1_T3.2 (ssRNA)
RNA: B1 RNA with U24C, U25A, C34U, C35A
B28: Id_ii_S4_P3E.2_K3.1_C3.2_[T-1A]_H3.1_A3.1_F3.1_T3.2_[T9G]_[A10C] (ssRNA)
RNA: B1 RNA with U24C, U25A, C34G
B29: Id_ii_S4_P3E.2_K3.1_C3.2_[T-1C]_H3.1_A3.1_F3.1_T3.2_[T9C]_[A10T] (ssRNA)
RNA: B1 RNA with U24C, U25C, C35U
B30: Id_ii_S4_P3E.2_K3.1_C3.2_[C-2T]_H3.1_A3.1_F3.1_T3.2_[A10T] (ssRNA)
RNA: B1 RNA with C34U, C35U
B31: Id_ii_S4_P3E.2_K3.1_C3.2_[T-1G]_H3.1_A3.1_F3.1_T3.2_[T9A]_[A10C] (ssRNA)
RNA: B1 RNA with U24C, U25G, C34A
B32: Id_ii_S4_P3E.3_K3.2_C3.2_[C-2G]_[T-1G]_H3.2_A3.1_F3.1_T3.2_[A10T] (ssRNA)
RNA: B1 RNA with U24G, U25G, G27A, C34U, C35U
B33: Id_ii_S4_P3E.2_K3.1_C3.2_[C-2A]_[T-1G]_H3.1_A3.1_F3.1_T3.2_[T9A]_[A10G] (ssRNA)
RNA: B1 RNA with U24A, U25G, C34A, C35G
B34: Id_ii_S4_P3E.2_K3.1_C3.2_[T-1C]_H3.1_A3.1_F3.1_T3.2_[T9G]_[A10C] (ssRNA)
RNA: B1 RNA with U24C, U25C, C34G
B35: Id_ii_S4_P3E.2_K3.1_C3.2_[T-1C]_H3.1_A3.1_F3.1_T3.2 (ssRNA)
RNA: B1 RNA with U24C, U25C, C34U, C35A
B36: Id_ii_S4_P3E.3_K3.2_C3.2_[C-2G]_[T-1C]_H3.2_A3.1_F3.1_T3.2_[A10T] (ssRNA)
RNA: B1 RNA with U24G, U25C, G27A, C34U, C35U
B37: Id_ii_S4_P3E.2_K3.1_C3.2_[C-2A]_[T-1G]_H3.1_A3.1_F3.1_T3.2_[T9A] (ssRNA)
RNA: B1 RNA with U24A, U25G, C34A, C35A
B38: Id_ii_S4_P3E.2_K3.1_C3.2_[T-1C]_H3.1_A3.1_F3.1_T3.2_[A10G] (ssRNA)
RNA: B1 RNA with U24C, U25C, C34U, C35G
B39: Id_ii_S4_P3E.2_K3.1_C3.2_[T-1G]_H3.1_A3.1_F3.1_T3.2_[A10T] (ssRNA)
RNA: B1 RNA with U24C, U25G, C34U, C35U
B40: Id_ii_S4_P3E.2_K3.1_C3.2_[C-2A]_H3.1_A3.1_F3.1_T3.2_[A10T] (ssRNA)
RNA: B1 RNA with U24A, C34U, C35U
B41: Id_ii_S4_P3E.2_K3.1_C3.2_[C-2T]_H3.1_A3.1_F3.1_T3.2_[T9C]_[A10T] (ssRNA)
RNA: B1 RNA with C35U
B42: Id_ii_S4_P3E.2_K3.1_C3.2_[C-2A]_[T-1C]_H3.1_A3.1_F3.1_T3.2_[T9A]_[A10T] (ssRNA)
RNA: B1 RNA with U24A, U25C, C34A, C35U
B43: Id_ii_S4_P3E.2_K3.1_C3.2_[C-2T]_H3.1_A3.1_F3.1_T3.2 (ssRNA)
RNA: B1 RNA with C34U, C35A
B44: Id_ii_S4_P3E.3_K3.2_C3.2_[C-2G]_[T-1G]_H3.2_A3.1_F3.1_T3.2_[A10G] (ssRNA)
RNA: B1 RNA with U24G, U25G, G27A, C34U, C35G
B45: Id_ii_S4_P3E.3_K3.2_C3.2_[C-2G]_[T-1C]_H3.2_A3.1_F3.1_T3.2_[T9C]_[A10T] (ssRNA)
RNA: B1 RNA with U24G, U25C, G27A, C35U
B46: Id_ii_S4_P3E.2_K3.1_C3.2_[C-2A]_H3.1_A3.1_F3.1_T3.2_[A10G] (ssRNA)
RNA: B1 RNA with U24A, C34U, C35G
B47: Id_ii_S4_P3E.2_K3.1_C3.2_[T-1G]_H3.1_A3.1_F3.1_T3.2_[T9C]_[A10C] (ssRNA)
RNA: B1 RNA with U24C, U25G
B48: Id_ii_S4_P3E.2_K3.1_C3.2_[T-1G]_H3.1_A3.1_F3.1_T3.2 (ssRNA)
RNA: B1 RNA with U24C, U25G, C34U, C35A
B49: If_S4_P3E.2_K3.1_C3.2_H3.1_A3.1_F3.1_T3.2 (ssRNA)
RNA: B1 RNA with U24C, C34U, C35A

Biological target: T1, PUF4 RNA-binding domain
Assay: Mg; RNA-MaP; 20 mM Na-HEPES pH 7.4, 30 mM KOAc, 0.75 mM MgCl2, 0.1% Tween-20, 5% glycerol, 0.1 mg/mL BSA, 2 mM DTT; 25 C; 0.0125-409.6 nM protein
Settings: tags: N-His6-TEV cleaved; C-SNAP kept, Cy3B-labelled; label: tethered on chip by stalled RNA polymerase

Binder	Kd
UCUCUUUGACUUAUUAUCUCUU (ssRNA) [Ib_S1_P5E.1_K5.1_C5.1_H5.1_[T3A]_[A4C]_A5.1_F5.1_T5.1]	> 2300 nM
UCUCUUCGUAUCAUUAUCUCUU (ssRNA) [Ib_S1_P5E.1_K5.1_C5.1_H5.1_[T1C]_A5.1_[T6C]_F5.1_T5.1]	1380 nM
UCUCUUAGUACUAUUAUCUCUU (ssRNA) [Ib_S1_P5E.1_K5.1_C5.1_H5.1_[T1A]_A5.1_[T5C]_F5.1_T5.1]	1400 nM
B1	2.87 nM
B2	1.23 nM
B3	9.36 nM
B4	6.6 nM
B5	2160 nM
B6	13.3 nM
B7	39.2 nM
B8	6.69 nM
B9	5.28 nM
B10	1.16 nM
B11	1.81 nM
B12	3.88 nM
B13	10.2 nM
B14	3.34 nM
B15	7.52 nM
B16	11.8 nM
B17	4.63 nM
B18	1.14 nM
B19	4.42 nM
B20	6.54 nM
B21	2.26 nM
B22	1200 nM
B23	1.77 nM
B24	676 nM

Binder	Kd
B25	2.05 nM
B26	2.68 nM
B27	1.73 nM
B28	2.75 nM
B29	1.47 nM
B30	1.75 nM
B31	8.59 nM
B32	234 nM
B33	9.13 nM
B34	2 nM
B35	0.873 nM
B36	149 nM
B37	10.8 nM
B38	1.76 nM
B39	1.48 nM
B40	2.72 nM
B41	2.81 nM
B42	2.65 nM
B43	2.14 nM
B44	562 nM
B45	557 nM
B46	10.6 nM
B47	11.3 nM
B48	1.4 nM
B49	0.951 nM
UCUCUUCGUAAUAUUAUCUCUU (ssRNA) [Ib_S1_P5E.1_K5.1_C5.1_H5.1_[T1C]_A5.1_[T5A]_F5.1_T5.1]	2020 nM
UCUCUUCGUACUAUUAUCUCUU (ssRNA) [Ib_S1_P5E.1_K5.1_C5.1_H5.1_[T1C]_A5.1_[T5C]_F5.1_T5.1]	592 nM
